Key:
Assay in all cases: cell-based or functional assay
[1] = biological target: Env of HIV isolate YU2.DG (clade B) (HIV)
[2] = biological target: Env of HIV isolate 001428-2.42 (clade C) (HIV)
[3] = biological target: Env of HIV isolate 6405.v4.c34 (clade D) (HIV)
[4] = biological target: HIV Env of isolate BG1168.01 (HIV)
[5] = biological target: Env of HIV isolate Ce1176.A3 (clade C) (HIV)
[6] = biological target: Env of HIV isolate CNE57 (clade B) (HIV)
[7] = biological target: HIV Env of isolate R2184.c4 (HIV)
[8] = biological target: HIV Env of isolate 288.38 (HIV)
[9] = biological target: Env of HIV isolate CE703010217.B6 (clade C) (HIV)
[10] = biological target: Env of HIV isolate CNE19 (clade BC) (HIV)
[11] = biological target: HIV Env of isolate 6631.v3.c10 (HIV)
[12] = biological target: Env of HIV isolate T266-60 (clade AG) (HIV)
[13] = biological target: HIV Env of isolate X1254.c3 (HIV)
[14] = biological target: HIV Env of isolate A07412M1.vrc12 (HIV)
[15] = biological target: Env of HIV isolate 271-11 (clade AG) (HIV)
[16] = biological target: HIV Env of isolate ZM176.66 (HIV)
[17] = biological target: Env of HIV isolate 3718.v3.c11 (clade A) (HIV)
[18] = biological target: HIV Env of isolate CNE55 (HIV)
[19] = biological target: HIV Env of isolate HO86.8 (HIV)
[20] = biological target: Env of HIV isolate C1080.c3 (clade AE) (HIV)
[21] = biological target: Env of HIV isolate 6101.10 (clade B) (HIV)
[22] = biological target: HIV Env of isolate 3168.v4.c10 (HIV)
[23] = biological target: Env of HIV isolate 3817.v2.c59 (clade CD) (HIV)
[24] = biological target: HIV Env of isolate ZM135.10a (HIV)
[25] = biological target: Env of HIV isolate 57128.vrc15 (clade D) (HIV)
[26] = biological target: Env of HIV isolate TH966.8 (clade AE) (HIV)
[27] = biological target: Env of HIV isolate T251-18 (clade AG) (HIV)
[28] = biological target: Env of HIV isolate 0260.v5.c36 (clade A) (HIV)
[29] = biological target: Env of HIV isolate ADA.DG (clade B) (HIV)
[30] = biological target: Env of HIV isolate HT593.1 (clade B) (HIV)
[31] = biological target: Env of HIV isolate CNE14 (clade B) (HIV)
[32] = biological target: HIV Env of isolate 3415.v1.c1 (HIV)
[33] = biological target: HIV Env of isolate YU2.DG (HIV) (UniProt P35961)
[34] = biological target: HIV Env of isolate 242-14 (HIV)
[35] = biological target: HIV Env of isolate 6838.v1.c35 (HIV)
[36] = biological target: Env of HIV isolate 3365.v2.c20 (clade A) (HIV)
[37] = biological target: Env of HIV isolate CNE3 (clade AE) (HIV)
[38] = biological target: Env of HIV isolate T250-4 (clade AG) (HIV)
[39] = biological target: HIV Env of isolate DU422.01 (HIV)
[40] = biological target: Env of HIV isolate CNE4 (clade B) (HIV)
[41] = biological target: Env of HIV isolate A07412M1.vrc12 (clade D) (HIV)
[42] = biological target: Env of HIV isolate CNE8 (clade AE) (HIV)
[43] = biological target: HIV Env of isolate 3637.v5.c3 (HIV)
[44] = biological target: HIV Env of isolate DJ263.8 (HIV)
[45] = biological target: HIV Env of isolate 89.6.DG (HIV)
[46] = biological target: HIV Env of isolate CNE57 (HIV)
[47] = biological target: Env of HIV isolate 25710-2.43 (clade C) (HIV)
[48] = biological target: Env of HIV isolate ZM135.10a (clade C) (HIV)
[49] = biological target: Env of HIV isolate Q769.h5 (clade A) (HIV)
[50] = biological target: HIV Env of isolate BG505.W6M.C2 (HIV)
[51] = biological target: HIV Env of isolate BL01.DG (HIV)
[52] = biological target: HIV Env of isolate CAP244.D3 (HIV)
[53] = biological target: Env of HIV isolate ZM214.15 (clade C) (HIV)

HIV Env of isolate YU2.DG (HIV), sequence (P35961 32-843 limits assumed): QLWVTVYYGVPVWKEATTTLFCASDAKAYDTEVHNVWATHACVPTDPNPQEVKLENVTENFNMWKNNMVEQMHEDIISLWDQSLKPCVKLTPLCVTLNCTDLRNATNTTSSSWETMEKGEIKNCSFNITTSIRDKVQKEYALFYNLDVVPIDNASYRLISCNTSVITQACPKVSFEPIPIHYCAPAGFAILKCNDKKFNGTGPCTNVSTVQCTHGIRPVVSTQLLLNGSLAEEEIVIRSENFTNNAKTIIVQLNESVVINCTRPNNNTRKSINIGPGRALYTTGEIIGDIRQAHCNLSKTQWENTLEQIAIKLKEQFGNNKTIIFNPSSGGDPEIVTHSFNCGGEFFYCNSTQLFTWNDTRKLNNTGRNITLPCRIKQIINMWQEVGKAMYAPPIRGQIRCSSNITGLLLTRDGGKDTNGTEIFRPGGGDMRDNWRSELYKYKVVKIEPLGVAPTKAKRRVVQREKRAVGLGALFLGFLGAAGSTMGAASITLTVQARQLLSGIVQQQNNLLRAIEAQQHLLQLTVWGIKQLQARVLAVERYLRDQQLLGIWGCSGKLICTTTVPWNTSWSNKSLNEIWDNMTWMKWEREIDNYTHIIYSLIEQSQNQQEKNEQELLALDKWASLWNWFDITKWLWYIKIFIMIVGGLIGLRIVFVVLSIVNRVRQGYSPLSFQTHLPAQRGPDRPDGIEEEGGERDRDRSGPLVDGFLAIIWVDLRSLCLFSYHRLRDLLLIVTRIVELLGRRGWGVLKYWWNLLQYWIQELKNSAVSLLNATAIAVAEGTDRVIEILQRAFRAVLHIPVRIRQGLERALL

PGT121 (antibody) was tested, and the IC50, pseudovirus neutralization [1] was 0.0397 µg/mL, the IC50, pseudovirus neutralization [2] was 0.0337 µg/mL and the IC50, pseudovirus neutralization [3] was 0.042 µg/mL. The IC80 [4] was > 50 µg/mL, the IC50, pseudovirus neutralization [5] was 0.0243 µg/mL and the IC50, pseudovirus neutralization [6] was 0.0283 µg/mL. The IC80 [7] was > 50 µg/mL, the IC80, pseudovirus neutralization [8] was 0.0443 µg/mL and the IC50, pseudovirus neutralization [9] was 0.007 µg/mL. For the same substance, the IC50, pseudovirus neutralization [10] was 0.00933 µg/mL, the IC80, pseudovirus neutralization [11] was > 50 µg/mL and the IC50, pseudovirus neutralization [12] was 0.143 µg/mL. For the same substance, the IC80, pseudovirus neutralization [13] was 0.106 µg/mL, the IC80, pseudovirus neutralization [14] was 0.208 µg/mL and the IC50, pseudovirus neutralization [15] was > 50 µg/mL. The IC80, pseudovirus neutralization [16] was 27.6 µg/mL, the IC50, pseudovirus neutralization [17] was 0.559 µg/mL and the IC80 [18] was > 50 µg/mL. For the same substance, the IC80 [19] was > 50 µg/mL, the IC50, pseudovirus neutralization [20] was > 50 µg/mL and the IC50, pseudovirus neutralization [21] was 0.0123 µg/mL. It also gave an IC80, pseudovirus neutralization [22] of 1.43 µg/mL, an IC50, pseudovirus neutralization [23] of 22.2 µg/mL and an IC80, pseudovirus neutralization [24] of 3.69 µg/mL. For the same substance, the IC50, pseudovirus neutralization [25] was 1.27 µg/mL, the IC50, pseudovirus neutralization [26] was > 50 µg/mL and the IC50, pseudovirus neutralization [27] was 3.05 µg/mL. The IC50, pseudovirus neutralization [28] was 0.0587 µg/mL, the IC50, pseudovirus neutralization [29] was 0.0333 µg/mL and the IC50, pseudovirus neutralization [30] was > 50 µg/mL. The IC50, pseudovirus neutralization [31] was 0.0103 µg/mL, the IC80 [32] was > 50 µg/mL and the IC80 [33] was 0.126 µg/mL. For the same substance, the IC80 [34] was > 50 µg/mL, the IC80, pseudovirus neutralization [35] was 0.21 µg/mL and the IC50, pseudovirus neutralization [36] was 0.112 µg/mL. The IC50, pseudovirus neutralization [37] was > 50 µg/mL, the IC50, pseudovirus neutralization [38] was 0.00433 µg/mL and the IC80, pseudovirus neutralization [39] was 0.176 µg/mL. For the same substance, the IC50, pseudovirus neutralization [40] was 1.9 µg/mL, the IC50, pseudovirus neutralization [41] was 0.042 µg/mL and the IC50, pseudovirus neutralization [42] was > 50 µg/mL. The IC80, pseudovirus neutralization [43] was > 50 µg/mL, the IC80 [44] was 0.202 µg/mL and the IC80 [45] was 0.0783 µg/mL. It also gave an IC80 [46] of 0.0777 µg/mL, an IC50, pseudovirus neutralization [47] of 0.0227 µg/mL and an IC50, pseudovirus neutralization [48] of 0.748 µg/mL. For the same substance, the IC50, pseudovirus neutralization [49] was > 50 µg/mL, the IC80 [50] was 0.165 µg/mL and the IC80 [51] was > 50 µg/mL. The IC80, pseudovirus neutralization [52] was > 50 µg/mL and the IC50, pseudovirus neutralization [53] was 0.392 µg/mL.
